Legend:
Conditions in all cases: remark: other sources report otherwise
[1] = biological target: HLA-A02:01 (human); experiment: pMHC-I dissociation half-life, 125I-b2m
[2] = biological target: HLA-A02:01 (human); experiment: competition with 125I-labelled probe peptide, purified HLA
[3] = biological target: HLA-B08:01 (human); experiment: peptide-MHC-I complex dissociation half-life, 125I-b2m, 37 C
[4] = biological target: HLA-B08:01 (human); experiment: competitive inhibition of 125I-labeled probe peptide binding to purified HLA class I

Binder	Stability (T1/2 (h)) [1] [h]	IC50 [2] [µM]	Stability (T1/2 (h)) [3] [h]	IC50 [4] [µM]
LVVVGACGV	0.6	1.21		
WLHKRGKYI [… (AKT1, E17K)]			1.3	0.417
LVVVGADGV	0	1.19		
LVVVGAVGV	0.6			

More lines, now with the values ahead:

Stability (T1/2 (h)) [1] [h]	IC50 [2] [µM]	Stability (T1/2 (h)) [3] [h]	IC50 [4] [µM]	Binder
		0		SLPRFILMEL [… (ALK, L1196M)]
		0		QLIMQLMPF [… (EGFR, T790M)]
		0	1.97	FLPSTLKSL [… (ESR1, S463P)]
		0		SVCFFFFSV [… (CNOT1(+1))]
